{"source": "paper PMC13708078", "about": "“Development of a GRPR-Targeted ^99mTc/^188Re Theranostic Pair Based on NOTA-P2-RM26” (Pharmaceutics, 2026)", "experiment": "in vivo", "design": "species or system mice", "conditions": "female, Swiss Albino SCID, mouse, iv, total radioactivity", "procedure": "PC-3 xenografts were established in female Swiss Albino SCID mice, aged 7–8 weeks. After acclimatization, animals were injected subcutaneously into the right shoulder/upper-flank region with freshly harvested PC-3 cells suspended in PBS. Each animal received 5 × 10^6 cells. Tumors were allowed to grow for approximately three weeks until palpable solid tumors were formed. At the time of the experiments, tumor volumes ranged from 200 to 400 mm^3. Animals were then randomly assigned to experimental groups.\nBiodistribution studies were performed at 30 min and 1 h post injection (p.i.). […] The injected volume was 100 μL, and the injected activity was approximately 100 kBq per animal. Animals weighed 21 ± 2 g on the day of the experiment. For in vivo blocking studies, a separate group of animals received non-radioactive NOTA-P2-RM26 (50 μg) 5 min prior to the radiotracer injection. Blocking animals were euthanized at 1 h p.i. At the selected time points, animals were euthanized. Blood, tumors, organs, and tissues of interest were collected, weighed, and measured for radioactivity using the gamma counter. The stomach and intestines were measured without content. […] Data were decay-corrected and expressed as a percentage of injected activity per gram of tissue (%IA/g). Urine/bladder and gastrointestinal/fecal content were expressed as a percentage of injected activity (%IA)."}
{"compound": "CC(C)C[C@H](NC(=O)C[C@H](O)[C@H](CC(C)C)NC(=O)[C@H](Cc1c[nH]cn1)NC(=O)CNC(=O)[C@@H](NC(=O)[C@H](C)NC(=O)[C@H](Cc1c[nH]c2ccccc12)NC(=O)[C@H](CCC(N)=O)NC(=O)[C@@H](Cc1ccccc1)NC(=O)COCCOCCNC(=O)CN1CCN(CC(=O)O)CCN(CC(=O)O)CC1)C(C)C)C(N)=O", "note": "[^99mTc2, fac-[^99mTc][Tc(CO)3(NOTA-P2-RM26)], metal not drawn]", "values": [{"measurement": "tissue uptake at 1 h", "setting": "bone uptake", "value": "0.18 ± 0.07", "unit": "%ID/g"}, {"measurement": "tissue uptake at 1 h", "setting": "pancreatic uptake", "value": "3 ± 0.35", "unit": "%ID/g"}]}
